Literature values, collected in patent US10870689B2, “ApoM-Fc fusion proteins, complexes thereof with sphingosine 1-phosphate (S1P), and methods for treating vascular and non-vascular diseases” (Children's Medical Center Corporation, priority 2016, dated 2020).
Each block holds one molecule with its values, some of them ahead of it.

Columns and labels:
[1] = Sevvana et al. 2010; read-out: relative affinity for S1P
[2] = not associated with HDL; Faber et al. 2006

Kd [1]: ~1000 nM
B1: recombinant ApoM: Bacterially expressed recombinant human ApoM (protein, UniProt O95445 1-188, looked up)
Apolipoprotein M: MFHQIWAALLYFYGIILNSIYQCPEHSQLTTLGVDGKEFPEVHLGQWYFIAGAAPTKEELATFDPVDNIVFNMAAGSAPMQLHLRATIRMKDGLCVPRKWIYHLTEGSTDLRTEGRPDMKTELFSSSCPGGIMLNETGQGYQRFLLYNRSPHPPEKCVEEFKSLTSCLDSKAFLLTPRNQEACELSNN

B2: Free ApoM: ApoM that is not associated with HDL (protein, UniProt O95445 1-188, looked up)
Apolipoprotein M: B1 Apolipoprotein M
in vivo half-life [2]: less than 15 minutes
